Assay results published in paper PMC9695418, “The Synthesis and Preclinical Investigation of Lactosamine-Based Radiopharmaceuticals for the Detection of Galectin-3-Expressing Melanoma Cells” (Pharmaceutics, 2022).

Assays:
[1] = test system: subcutaneous B16-F10 tumors; settings: mouse, in vivo
Description: (§1) After in vivo PET imaging (100 min post injection), control and B16-F10 tumor-bearing mice were euthanized with 5% isoflurane (Forane, AbbVie, Budapest, Hungary; OGYI-T-1414/01). For the assessment of the radiotracer uptake, the radioactivity concentration (%ID/g tissue) of the selected organs was measured with a calibrated gamma counter (Perkin-Elmer Packard Cobra, Waltham, MA, USA) (Supplementary Material Table S1).

in vivo [2] = settings: C57BL/6, mouse, iv, total radioactivity, SUVmean of the liver
Description: Both normal control and B16-F10 tumorous mice were iv. administered with 6.8 ± 0.9 MBq [^68Ga]Ga-DOTAGA-LacN(NAP), [^68Ga]Ga-DOTAGA-LacN(NAP)-cRGDfK, or [^68Ga]Ga-DOTAGA-cRGDfK in 120 μL saline through the lateral tail vein.

in vivo [3] = settings: C57BL/6, mouse, iv, total radioactivity
Description: as §1

human galectin-3 CRD = settings: fold greater affinity than lactose; cited from earlier work
in vivo [4] = experiment: in vivo; set-up: species or system C57BL/6 mice; settings: C57BL/6, mouse, iv, total radioactivity
From the text: As part of the ex vivo biodistribution studies—after PET imaging—the sacrifice of the experimental animals occurred followed by the gamma counter-based measurement of the radioactivity of the organs and tissues (Figure 7).
Significance level between the [^68Ga]Ga-DOTAGA-LacN(NAP) and the two other investigated radiotracers: p ≤ 0.01 (*).

[5] = ex vivo biodistribution: bone (femur)
[6] = ex vivo biodistribution: kidney
[7] = ex vivo biodistribution: large intestine
[8] = ex vivo biodistribution: muscle
[9] = ex vivo biodistribution: pancreas
[10] = ex vivo biodistribution: salivary glands
[11] = ex vivo biodistribution: small intestine
[12] = ex vivo biodistribution: spleen
[13] = uptake in subcutaneous B16-F10 tumors

With N=C(N)NCCC[C@@H]1NC(=O)[C@H](CCCCNC(=S)Nc2ccc(CNC(=O)CCC(C(=O)O)N3CCN(CC(=O)O)CCN(CC(=O)O)CCN(CC(=O)O)CC3)cc2)NC(=O)[C@@H](Cc2ccccc2)NC(=O)[C@H](CC(=O)O)NC(=O)CNC1=O (stereo partly drawn) [[^68Ga]Ga-DOTAGA-cRGDfK, metal not drawn] the “B16-F10/Liver ratio (T/L)” value [1] was 0.35 ± 0.14, the “B16-F10/Muscle ratio (T/M)” value [1] was 4.54 ± 1.24 and the SUV at 80 min (in vivo [2]) was 0.59 ± 0.08 SUV. For the same compound, the tissue uptake at 100 min (in vivo [3]; ex vivo biodistribution: blood) was 0.37 ± 0.05 %ID/g, the tissue uptake at 100 min (in vivo [3]; [5]) was 0.26 ± 0.04 %ID/g and the tissue uptake at 100 min (in vivo [3]; ex vivo biodistribution: brain) was 0.03 ± 0.01 %ID/g. For the same compound, the tissue uptake at 100 min (in vivo [3]; ex vivo biodistribution: fat) was 0.19 ± 0.08 %ID/g, the tissue uptake at 100 min (in vivo [3]; ex vivo biodistribution: gall bladder) was 0.84 ± 0.29 %ID/g and the tissue uptake at 100 min (in vivo [3]; ex vivo biodistribution: heart) was 0.26 ± 0.06 %ID/g. It also gave a tissue uptake at 100 min (in vivo [3]; [6]) of 2.43 ± 0.26 %ID/g, a tissue uptake at 100 min (in vivo [3]; [7]) of 0.55 ± 0.16 %ID/g and a tissue uptake at 100 min (in vivo [3]; ex vivo biodistribution: liver) of 1 ± 0.25 %ID/g. For the same compound, the tissue uptake at 100 min (in vivo [3]; ex vivo biodistribution: lungs) was 0.66 ± 0.18 %ID/g, the tissue uptake at 100 min (in vivo [3]; [8]) was 0.1 ± 0.01 %ID/g and the tissue uptake at 100 min (in vivo [3]; [9]) was 0.18 ± 0.06 %ID/g. For the same compound, the tissue uptake at 100 min (in vivo [3]; [10]) was 0.54 ± 0.18 %ID/g, the tissue uptake at 100 min (in vivo [3]; [11]) was 0.78 ± 0.2 %ID/g and the tissue uptake at 100 min (in vivo [3]; [12]) was 0.8 ± 0.09 %ID/g. It also gave a tissue uptake at 100 min (in vivo [3]; ex vivo biodistribution: stomach) of 0.69 ± 0.21 %ID/g and a tissue uptake at 100 min (in vivo [3]; [13]) of 0.35 ± 0.12 %ID/g.

For CC(=O)N[C@H]1C(O)O[C@H](CO)[C@@H](O[C@@H]2O[C@H](CO)[C@H](O)[C@H](O)[C@H]2O)[C@@H]1O (stereo partly drawn) [N-acetyl-lactosamine], the “affinity for the CRD of galectin-3 compared to the lactose molecule” value (human galectin-3 CRD) is given as 5 fold.

For N=C(N)NCCC[C@@H]1NC(=O)[C@H](CCCCNC(=O)CCOCCOCCOCCOCCNC(=O)CCC(=O)N2Cc3ccccc3-c3c(nnn3CCCO[C@@H]3O[C@H](CO)[C@@H](O[C@@H]4O[C@H](CO)[C@H](O)[C@H](OCc5ccc6ccccc6c5)[C@H]4O)[C@H](O)[C@H]3NC(=S)Nc3ccc(CNC(=O)CCC(C(=O)O)N4CCN(CC(=O)O)CCN(CC(=O)O)CCN(CC(=O)O)CC4)cc3)-c3ccccc32)NC(=O)[C@@H](Cc2ccccc2)NC(=O)[C@H](CC(=O)O)NC(=O)CNC1=O (stereo partly drawn) [[^68Ga]Ga-DOTAGA-LacN(NAP)-cRGDfK, metal not drawn], the “B16-F10/Liver ratio (T/L)” value [1] was 0.45 ± 0.11, the “B16-F10/Muscle ratio (T/M)” value [1] was 3.43 ± 1.09 and the SUV at 80 min (in vivo [2]) was 1.25 ± 0.18 SUV. For the same compound, the tissue uptake at 100 min (in vivo [3]; ex vivo biodistribution: blood) was 0.58 ± 0.14 %ID/g, the tissue uptake at 100 min (in vivo [3]; [5]) was 0.54 ± 0.21 %ID/g and the tissue uptake at 100 min (in vivo [3]; ex vivo biodistribution: brain) was 0.06 ± 0.01 %ID/g. The tissue uptake at 100 min (in vivo [3]; ex vivo biodistribution: fat) was 0.17 ± 0.13 %ID/g, the tissue uptake at 100 min (in vivo [3]; ex vivo biodistribution: heart) was 0.61 ± 0.17 %ID/g and the tissue uptake at 100 min (in vivo [3]; [6]) was 6.14 ± 1.14 %ID/g. It also gave a tissue uptake at 100 min (in vivo [3]; [7]) of 1.74 ± 0.7 %ID/g, a tissue uptake at 100 min (in vivo [3]; ex vivo biodistribution: liver) of 2.19 ± 0.73 %ID/g and a tissue uptake at 100 min (in vivo [3]; ex vivo biodistribution: lungs) of 1.54 ± 0.62 %ID/g. It also gave a tissue uptake at 100 min (in vivo [3]; [8]) of 0.27 ± 0.07 %ID/g, a tissue uptake at 100 min (in vivo [3]; [9]) of 0.43 ± 0.12 %ID/g and a tissue uptake at 100 min (in vivo [3]; [10]) of 1.34 ± 0.5 %ID/g. The tissue uptake at 100 min (in vivo [3]; [11]) was 1.77 ± 0.96 %ID/g, the tissue uptake at 100 min (in vivo [3]; [12]) was 1.6 ± 1.17 %ID/g and the tissue uptake at 100 min (in vivo [3]; [13]) was 0.8 ± 0.23 %ID/g. It also gave a tissue uptake at 100 min (in vivo [4]; accumulation in the gall bladder) of 3.07 ± 2.1 %ID/g, a tissue uptake at 100 min (in vivo [4]; accumulation in the intestines) of ~1.7 %ID/g and a tissue uptake at 100 min (in vivo [4]; accumulation in the stomach) of 1.7 ± 0.71 %ID/g.
